Results published in patent US20220401557A1 (Chugai, published 2022).
Where a chain is given by its changes, count along the chain named.

B1: rCE115/GLSGS//GCH065 (bispecific antibody, human IgG1, kappa, N297A)
heavy 1: EVQLVETGGSLVQPGKSLKLTCATSGFTFSNAWMHWVRQSPEKQLEWVAQIKAKSNNYATYYAESVKGRFTISRDDSKSNIYLQMNSLKEEDTAVYYCRYVHYGAYYGVDAWGQGTSVTVSSASTKGPSVFPLAPSSKSTSGGTAALGCLVKDYFPEPVTVSWNSGALTSGVHTFPAVLQSSGLYSLSSVVTVPSSSLGTQTYICNVNHKPSNTKVDKKVEPKSCDKTHTCPPCPAPELRGGPKVFLFPPKPKDTLMISRTPEVTCVVVDVSHEDPEVKFNWYVDGVEVHNAKTKPREEQYASTYRVVSVLTVLHQDWLNGKEYKCKVSNKALPAPIEKTISKAKGQPREPQVYTLPPSRKEMTKNQVSLTCLVKGFYPSDIAVEWESNGQPENNYKTTPPYLDSDGSFFLYSKLTVDKSRWQQGNVFSCSVMHEALHNHYTQKSLSLSP
light 1: QDGNEGGGSGGGSGGGSDIVMTQSPLSLPVTPGEPASISCRSSQSLVHSNRNTYLHWYQQKPGQAPRLLIYKVSNRFSGVPDRFSGSGSGTDFTLKISRVEAEDVGVYYCGQGTQVPYTFGQGTKLEIKRTVAAPSVFIFPPSDEQLKSGTASVVCLLNNFYPREAKVQWKVDNALQSGNSQESVTEQDSKDSTYSLSSTLTLSKADYEKHKVYACEVTHQGLSSPVTKSFNRGEC
heavy 2: QVQLVQSGAEVKKPGASVTVSCKASGYTFTDYEMHWIRQPPGEGLEWIGAIDGPTPDTAYSEKFKGRVTLTADKSTSTAYMELSSLTSEDTAVYYCTRFYSYTYWGQGTLVTVSSASTKGPSVFPLAPSSKSTSGGTAALGCLVKDYFPEPVTVSWNSGALTSGVHTFPAVLQSSGLYSLSSVVTVPSSSLGTQTYICNVNHKPSNTKVDKKVEPKSCDKTHTCPPCPAPELRGGPKVFLFPPKPKDTLMISRTPEVTCVVVDVSHEDPEVKFNWYVDGVEVHNAKTKPREEQYASTYRVVSVLTVLHQDWLNGKEYKCKVSNKALPAPIEKTISKAKGQPREPQVYTLPPSREEMTKNQVSLTCLVKGFYPSDIAVEWESNGQPENNYKTTPPYLDSDGSFFLYSKLTVDKSRWQQGNVFSCSVMHEALHNHYTQESLSLSP
light 2: DIVMTQSPLSLPVTPGEPASISCRSSQPLVHSNRNTYLHWYQQKPGQAPRLLIYKVSNRFSGVPDRFSGSGSGTDFTLKISRVEAEDVGVYYCGQGTQVPYTFGQGTKLEIKRTVAAPSVFIFPPSDEQLKSGTASVVCLLNNFYPREAKVQWKVDNALQSGNSQESVTEQDSKDSTYSLSSTLTLSKADYEKHKVYACEVTHQGLSSPVTKSFNRGEC
B2: hCE115HAuPA20L/GLS//GCH065 (bispecific antibody, human IgG1, kappa, N297A)
heavy 1: QDGNEEMGGITQTPYKVSISGGGGSGGGGSGGGGSLSGRSDNHGGGSQVQLVESGGGVVQPGRSLRLSCAASGFTFSNAWMHWVRQAPGKGLEWVAQIKAKSNNYATYYAESVKGRFTISRDDSKNSLYLQMNSLKTEDTAVYYCRYVHYGAYYGVDAWGQGTTVTVSSASTKGPSVFPLAPSSKSTSGGTAALGCLVKDYFPEPVTVSWNSGALTSGVHTFPAVLQSSGLYSLSSVVTVPSSSLGTQTYICNVNHKPSNTKVDKKVEPKSCDKTHTCPPCPAPELRGGPKVFLFPPKPKDTLMISRTPEVTCVVVDVSHEDPEVKFNWYVDGVEVHNAKTKPREEQYASTYRVVSVLTVLHQDWLNGKEYKCKVSNKALPAPIEKTISKAKGQPREPQVYTLPPSRKEMTKNQVSLTCLVKGFYPSDIAVEWESNGQPENNYKTTPPYLDSDGSFFLYSKLTVDKSRWQQGNVFSCSVMHEALHNHYTQKSLSLSP
light 1: B1 light 2 with P28S
heavy 2: B1 heavy 2
light 2: B1 light 2
B3: ANuPA20L/GLS//GCH065 (bispecific antibody, human IgG1, kappa, N297A)
heavy 1: QDGNEEMGGITQTPYKVSISGGGGSGGGGSGGGGSLSGRSDNHGGGSQVQLVESGGGLVQPGRSLRLSCAASGFTFSNAWMHWVRQAPGKGLEWVAQIKDKANGYNAYYAESVKGRFTISRDDSKNSIYLQMNSLKTEDTAVYYCRYVHYTTYAGFSYKFGVDAWGQGTTVTVSSASTKGPSVFPLAPSSKSTSGGTAALGCLVKDYFPEPVTVSWNSGALTSGVHTFPAVLQSSGLYSLSSVVTVPSSSLGTQTYICNVNHKPSNTKVDKKVEPKSCDKTHTCPPCPAPELRGGPKVFLFPPKPKDTLMISRTPEVTCVVVDVSHEDPEVKFNWYVDGVEVHNAKTKPREEQYASTYRVVSVLTVLHQDWLNGKEYKCKVSNKALPAPIEKTISKAKGQPREPQVYTLPPSRKEMTKNQVSLTCLVKGFYPSDIAVEWESNGQPENNYKTTPPYLDSDGSFFLYSKLTVDKSRWQQGNVFSCSVMHEALHNHYTQKSLSLSP
light 1: B1 light 2 with P28S
heavy 2: B1 heavy 2
light 2: B1 light 2
B4: rCE115/GLSuPA20//GCH065 (bispecific antibody, human IgG1, kappa, N297A)
heavy 1: B1 heavy 1
light 1: QDGNEEMGGITQTPYKVSISLSGRSDNHGGGSDIVMTQSPLSLPVTPGEPASISCRSSQSLVHSNRNTYLHWYQQKPGQAPRLLIYKVSNRFSGVPDRFSGSGSGTDFTLKISRVEAEDVGVYYCGQGTQVPYTFGQGTKLEIKRTVAAPSVFIFPPSDEQLKSGTASVVCLLNNFYPREAKVQWKVDNALQSGNSQESVTEQDSKDSTYSLSSTLTLSKADYEKHKVYACEVTHQGLSSPVTKSFNRGEC
heavy 2: B1 heavy 2
light 2: B1 light 2
B5: rCE115/GLSuPA04//GCH065 (bispecific antibody, human IgG1, kappa, N297A)
heavy 1: B1 heavy 1
light 1: QDGNEEMGGGSGGGSGGGSLSGRSDNHGGGSDIVMTQSPLSLPVTPGEPASISCRSSQSLVHSNRNTYLHWYQQKPGQAPRLLIYKVSNRFSGVPDRFSGSGSGTDFTLKISRVEAEDVGVYYCGQGTQVPYTFGQGTKLEIKRTVAAPSVFIFPPSDEQLKSGTASVVCLLNNFYPREAKVQWKVDNALQSGNSQESVTEQDSKDSTYSLSSTLTLSKADYEKHKVYACEVTHQGLSSPVTKSFNRGEC
heavy 2: B1 heavy 2
light 2: B1 light 2
B6: rCE115/rCE115//GCH065 (bispecific antibody, human IgG1, kappa, N297A)
heavy 1: B1 heavy 1
light 1: DVVMTQTPVSMSVSLGGQVSISCRSSQSLVHNNGNTYVSWYIQKPSQSPQLLIYKVSNRFSGISDRFSGSGSGTDFTLKISRVEPDDLGVYYCGQGTQDPYTFGAGTKLELKRTVAAPSVFIFPPSDEQLKSGTASVVCLLNNFYPREAKVQWKVDNALQSGNSQESVTEQDSKDSTYSLSSTLTLSKADYEKHKVYACEVTHQGLSSPVTKSFNRGEC
heavy 2: B1 heavy 2
light 2: B1 light 2
B7: hCE115HAuPA04/GLS//GCH065 (bispecific antibody, human IgG1, kappa, N297A)
heavy 1: QDGNEEMGGGSGGGSGGGSLSGRSDNHGGGSQVQLVESGGGVVQPGRSLRLSCAASGFTFSNAWMHWVRQAPGKGLEWVAQIKAKSNNYATYYAESVKGRFTISRDDSKNSLYLQMNSLKTEDTAVYYCRYVHYGAYYGVDAWGQGTTVTVSSASTKGPSVFPLAPSSKSTSGGTAALGCLVKDYFPEPVTVSWNSGALTSGVHTFPAVLQSSGLYSLSSVVTVPSSSLGTQTYICNVNHKPSNTKVDKKVEPKSCDKTHTCPPCPAPELRGGPKVFLFPPKPKDTLMISRTPEVTCVVVDVSHEDPEVKFNWYVDGVEVHNAKTKPREEQYASTYRVVSVLTVLHQDWLNGKEYKCKVSNKALPAPIEKTISKAKGQPREPQVYTLPPSRKEMTKNQVSLTCLVKGFYPSDIAVEWESNGQPENNYKTTPPYLDSDGSFFLYSKLTVDKSRWQQGNVFSCSVMHEALHNHYTQKSLSLSP
light 1: B1 light 2 with P28S
heavy 2: B1 heavy 2
light 2: B1 light 2
B8: rCE115/GLSuPA27//GCH065 (bispecific antibody, human IgG1, kappa, N297A)
heavy 1: B1 heavy 1
light 1: QDGNEEMGGITQTPYKVSISGTTVILTLSGRSDNHDIVMTQSPLSLPVTPGEPASISCRSSQSLVHSNRNTYLHWYQQKPGQAPRLLIYKVSNRFSGVPDRFSGSGSGTDFTLKISRVEAEDVGVYYCGQGTQVPYTFGQGTKLEIKRTVAAPSVFIFPPSDEQLKSGTASVVCLLNNFYPREAKVQWKVDNALQSGNSQESVTEQDSKDSTYSLSSTLTLSKADYEKHKVYACEVTHQGLSSPVTKSFNRGEC
heavy 2: B1 heavy 2
light 2: B1 light 2
B9: rCE115/rCE115uPA04//GCH065 (bispecific antibody, human IgG1, kappa, N297A)
heavy 1: B1 heavy 1
light 1: QDGNEEMGGGSGGGSGGGSLSGRSDNHGGGSDVVMTQTPVSMSVSLGGQVSISCRSSQSLVHNNGNTYVSWYIQKPSQSPQLLIYKVSNRFSGISDRFSGSGSGTDFTLKISRVEPDDLGVYYCGQGTQDPYTFGAGTKLELKRTVAAPSVFIFPPSDEQLKSGTASVVCLLNNFYPREAKVQWKVDNALQSGNSQESVTEQDSKDSTYSLSSTLTLSKADYEKHKVYACEVTHQGLSSPVTKSFNRGEC
heavy 2: B1 heavy 2
light 2: B1 light 2
B10: rCE115/rCE115GS//GCH065 (bispecific antibody, human IgG1, kappa, N297A)
heavy 1: B1 heavy 1
light 1: QDGNEGGGSGGGSGGGSDVVMTQTPVSMSVSLGGQVSISCRSSQSLVHNNGNTYVSWYIQKPSQSPQLLIYKVSNRFSGISDRFSGSGSGTDFTLKISRVEPDDLGVYYCGQGTQDPYTFGAGTKLELKRTVAAPSVFIFPPSDEQLKSGTASVVCLLNNFYPREAKVQWKVDNALQSGNSQESVTEQDSKDSTYSLSSTLTLSKADYEKHKVYACEVTHQGLSSPVTKSFNRGEC
heavy 2: B1 heavy 2
light 2: B1 light 2

molecular target: CD3 on NFAT-RE-luc2-Jurkat cells (human, UniProt P07766 23-207); assay: cell-based or functional assay
Sequence (P07766 23-207): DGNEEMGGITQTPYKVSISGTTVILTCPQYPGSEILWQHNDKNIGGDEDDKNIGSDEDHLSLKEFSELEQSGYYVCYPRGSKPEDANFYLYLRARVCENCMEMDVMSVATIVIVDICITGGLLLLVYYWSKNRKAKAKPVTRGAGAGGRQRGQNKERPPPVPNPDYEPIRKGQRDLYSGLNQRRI

Row | Binder | increase rate due to the protease treatment (luciferase, uPA-treated / untreated), antibody 0.1 nM [ratio] | increase rate due to the protease treatment (luciferase, uPA-treated / untreated), antibody 1 nM [ratio]
1 | B1 | 1 | 0.7
2 | B2 | 1.2 | 2.4
3 | B3 | 1 | 1.7
4 | B4 | 2.8 | 1.6
5 | B5 | 6.4 | 3.1
6 | B6 | 0.7 | 0.9
7 | B7 | 1.3 | 6.3
8 | B8 | 1 | 1.5
9 | B9 | 2.7 | 3.8
10 | B10 | 0.9 | 0.6
